Assay results taken from the DeepSol protein solubility set.

assay: soluble on expression in E. coli; label from the status in PepcDB or PDB records

Row | Sequence | soluble on expression in E. coli
1 | MGSDKIHHHHHHMTASVNVPLNSRGKLAASLPAEQLAEITALFEFRRTGYSLDAPFYTDRSIFNIDMEAIFGQHWIFAASTAELPEPGDYVTVDYGPYSLIVLRNDDGAVNVLHNVCRHRGARVLTEAAGSTGNLVCGYHSWTYSPEGNLIHASAPGETKFDKSCFGLKRAHGREVAGLIFVCIADDAPTDFDETAKIFEPYLAPHDLSKTKIAYQQNIIEEGNWKLVMENNRECYHCDGHPELACSLFPTWGLTEGLIPPHLEEVWNRNKEAQSSLEERCRRYGLPYEVVEQLDTRIAGIRISRESLDGEGESFSADGRRLSKKLLGDLPDFRLGRCSMHLQPNSWFHFLGDHVITFGVFPINEHQSLVRTTWLVADDAVEGVDYDLEKLTYTWKQTNLQDKAFVELCQQGAGSPAYEPGPYMKSEYQVEAFINWYVQRVQEHLA | not soluble
2 | MGSDKIHHHHHHMKNRAGEYRTNLTGELQYRSFLPYPLPPSPPIELDEETIKLLAKANRSIGILEGMSRQIPDIDLFVSMYVRKEALLSSQIEGTQVTLDDILDPNIEENTNQNVADVINYIKASHYGSARLAELPLCNRLLKEIHEILMQDVRGGEKSPGEFRSSQNWIGPAGSTLRDARYIPPHPEDMLEAMSDLEKFINSEDELDPLIKIALIHYQFETIHPFLDGNGRIGRLLIALYLINQNLLSHETLYISYFLKRNRIEYYDRLTEVRSKGNFEQWLKFFLLAAYESAQDAIDTIERILKLHYKNVEVVKNTGKASKTVMKVFNYLESSPIIDIKKTSLALELSFNTVSNAVNKLVELGILKQTENVRRSRVFAYEEYLEILRKDT | not soluble
3 | MPSNDIQGLELPQSYFNAAAKRQKYAMKPGLSALEKNAVIKAAYRQIFERDITKAYSQSISYLESQVRNGDISMKEFVRRLAKSPLYRKQFFEPFINSRALELAFRHILGRGPSSREEVQKYFSIVSSGGLPALVDALVDSQEYADYFGEETVPYLRGLGVEALEHHHHHH | soluble
4 | MKKALMICAAGTMIFVSYSAENTAPEVSKAVEDRITKDYDQDGVYSSYEKALRRAQGSIYVTLPEKRGEWYSTLDKIKEEEKELMPDEEARMRRKR | not soluble
5 | MAHHHHHHMAKERNLDLKALQRSKRTVAHAYDAGVRSVPPALPLDIGGALAQVLTTRVTTCFGLHLIVTAQNEDAEQQSAPSLLMDVAVRAHLERLPLPVLHRLISDLCEVRAAWKRDLLAPSAAAAVQEQALLGRESINALLYHVCLWQRRYPLELLSAVLSFYDEHKHLFSPATSERCSASVQLESLLEEVQCLQYPDLSDVPGLIRCDVFMTYPHMPLGEQRQLMHTIAAAVVHRKAAGGLQRQSSCMGTEEKYVTDNLLRHSRTPPDPRLLLRSFVVDGAAAIPERFCTDMPTQTYHEMRAAFERHKHDGVRRLAAQDYGQAVTELTPPPPPPPPQPAASSVPSS | not soluble
6 | SLSPRRLRLLLVDENPTARAVIGRRLSHRHYDVTVVEDGFAAQKTLIIQPSDIILIDMDLQLLPAIGTMEKIRAAHPAGHACIVMIGGASDTPKMIAALDAGADDHIVKPFDFDMLDARLRRVHARAERVNLLSRQYAELDARIARRAMELGETRETLRQVELDRARLMASVDHLQAEVARLSAREG | soluble
7 | MRIFLDANVIADWILLKNKNQDASDPLLTERYRHMAESFKLVEEILKLKEKVSGTSQMAIAEVFGVIYDDAINMKLFREAVPASSWYWFSIRERKALSEDSQQLFLMEPHTSPQGI | not soluble
8 | MGSDKIHHHHHHMADKRTEGSGKGGAKAAGKGGLGEVVLLSGGNPQIAKGYGDAPVQAYIAAMPGWKRAVGERLDAIVERTVPGVYKAVKWNSPFYGFEGEGWFLSFHCMTKYIKVAFFRGASLQPLPPGASKQKDVRYLDIYEDAPFDEARFADWVAQASRLPGERM | not soluble
9 | MTKIAESKIIVGLDIGTSKIAVVVGEVLPDGVINVLGASNCPSKGIDRGGVIDLDAAVNSIQRAIEQAESVSNCQIMGVTLAISGQHITALNESGVIPLSGTVVRKEDIDAAIHIAHSIKLPDG | not soluble
10 | MIMFNYQQTSQSCVKCGKCIPSCTIYNIHPDEVTSPRGFIDLLGAYQRGELELDKNAKDIFEKCFLCTNCTYVCPNLLPTDQVIENVRAEIAQKFGIAWFKRAYFFLLRNRWLEHHHHHH | soluble
11 | MSLKKNIYPNKEGCPVEFTLDVIGGKWKGILFYHMIDGKKRFNEFRRICPSITQRMLTLQLRELEADGIVHREVYHQVPPKVEYSLTEFGRTLEPIVLQMKEWGESNRDVLESYRSNGLVKDQQKEGGSHHHHHH | soluble
